The text below walks through data of US20100260765A1 (AstraZeneca / MedImmune, published 2010).

The target of test [1] is KDR endogenously expressed on human umbilical vein endothelial cells (HUVEC) (human, UniProt P35968 20-1356). Briefly: cell-based or functional assay.
Test [2] deals with T1, soluble KDR extracellular domain (ECD) (Calbiochem) (human, UniProt P35968 20-764).
T1 construct: extracellular domain; Bought protein; also called KDR-ECD; VEGF Receptor 2 D1-7, Cat. #676490
Kind of test: High Antigen ELISA, KDR coat 500 ng/mL, supernatant 1:25. On the procedure:
(§1) ELISA plates were coated with a greater amount of KDR (at 500 ng/mL) in comparison with the Limited Antigen Quantitation assay described below. Sample containing antibody (Ab) was titrated on the KDR-coated ELISA plates and was incubated overnight at 4° C. to allow Ab binding to approach equilibrium. Titration of Ab in sample covered a dilution range of 1:25 to 1:18,225. A standard curve of KDR-specific antibody of known concentration was used to define the linear range of the assay. Data within the linear range were used to derive the relative concentration of KDR-specific Ab in each titrated sample. The high KDR concentration and the overnight incubation limited the effect of Ab affinity, allowing quantitation of the relative amount of KDR-specific Ab present in each sample.
In general terms: ELISA stands for enzyme-linked immunosorbent assay.

For test [3], the target named is T1, soluble KDR extracellular domain (ECD) …. Kind of test: High Antigen ELISA, KDR coat 500 ng/mL, supernatant 1:75. As to the method:
as §1

For test [4] the target is unchanged. Kind of test: High Antigen ELISA, KDR coat 500 ng/mL, supernatant 1:225. As to the method: as §1
For test [5] the target is unchanged. Briefly: High Antigen ELISA, KDR coat 500 ng/mL, supernatant 1:675. As to the method:
as §1

For test [6] the target is unchanged. Kind of test: High Antigen ELISA, KDR coat 500 ng/mL, supernatant 1:2025. On the procedure: as §1
For test [7] the target is unchanged. Briefly: High Antigen ELISA, KDR coat 500 ng/mL, supernatant 1:6075. On the procedure: as §1
For test [8] the target is unchanged. Briefly: Limited Antigen ELISA, KDR coat 25 ng/mL, supernatant 1:25. As to the method:
(§2) Samples containing one concentration of antibody (Ab) (1:25 dilution) were incubated overnight to allow Ab binding to approach equilibrium. The low antigen concentration limited the effect of antibody concentration, allowing ranking of the antibodies based on their relative affinity.

Test [9] shares this target. Kind of test: Limited Antigen ELISA, KDR coat 50 ng/mL, supernatant 1:25. As to the method: as §2
The target is the same in test [10]. Briefly: High Antigen ELISA, KDR coat 500 ng/mL, supernatant 1:18,225. On the procedure: as §1
The target is the same in test [11]. Kind of test: Limited Antigen ELISA, KDR coat 12.5 ng/mL, supernatant 1:25. On the procedure: as §2
For test [12] the target is unchanged. Kind of test: Limited Antigen ELISA, KDR coat 6.25 ng/mL, supernatant 1:25. On the procedure:
as §2

The target is the same in test [13]. Kind of test: Limited Antigen ELISA, KDR coat 3.125 ng/mL, supernatant 1:25. On the procedure: as §2

T1 sequence (P35968 20-764): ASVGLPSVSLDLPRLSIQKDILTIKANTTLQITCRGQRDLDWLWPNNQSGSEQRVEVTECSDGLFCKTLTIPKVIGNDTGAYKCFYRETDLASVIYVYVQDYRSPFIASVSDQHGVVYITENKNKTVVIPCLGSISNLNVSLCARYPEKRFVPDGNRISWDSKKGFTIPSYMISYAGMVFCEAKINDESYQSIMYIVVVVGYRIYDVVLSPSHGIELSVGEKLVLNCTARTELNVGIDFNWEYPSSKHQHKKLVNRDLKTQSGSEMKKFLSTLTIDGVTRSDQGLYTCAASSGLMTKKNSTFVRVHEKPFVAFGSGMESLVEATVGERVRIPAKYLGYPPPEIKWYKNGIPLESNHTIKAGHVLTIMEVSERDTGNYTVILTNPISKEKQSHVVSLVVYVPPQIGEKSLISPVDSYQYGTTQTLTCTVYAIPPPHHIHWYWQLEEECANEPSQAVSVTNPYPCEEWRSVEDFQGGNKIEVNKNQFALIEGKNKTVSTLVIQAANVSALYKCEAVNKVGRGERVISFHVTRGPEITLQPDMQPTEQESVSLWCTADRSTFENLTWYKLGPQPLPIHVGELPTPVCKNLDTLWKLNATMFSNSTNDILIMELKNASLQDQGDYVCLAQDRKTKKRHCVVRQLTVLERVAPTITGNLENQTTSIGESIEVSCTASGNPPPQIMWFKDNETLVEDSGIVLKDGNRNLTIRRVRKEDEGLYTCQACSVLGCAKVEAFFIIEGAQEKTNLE
Chain of KDR endogenously expressed on human umbilical vein endothelial cells (HUVEC) (P35968 20-1356): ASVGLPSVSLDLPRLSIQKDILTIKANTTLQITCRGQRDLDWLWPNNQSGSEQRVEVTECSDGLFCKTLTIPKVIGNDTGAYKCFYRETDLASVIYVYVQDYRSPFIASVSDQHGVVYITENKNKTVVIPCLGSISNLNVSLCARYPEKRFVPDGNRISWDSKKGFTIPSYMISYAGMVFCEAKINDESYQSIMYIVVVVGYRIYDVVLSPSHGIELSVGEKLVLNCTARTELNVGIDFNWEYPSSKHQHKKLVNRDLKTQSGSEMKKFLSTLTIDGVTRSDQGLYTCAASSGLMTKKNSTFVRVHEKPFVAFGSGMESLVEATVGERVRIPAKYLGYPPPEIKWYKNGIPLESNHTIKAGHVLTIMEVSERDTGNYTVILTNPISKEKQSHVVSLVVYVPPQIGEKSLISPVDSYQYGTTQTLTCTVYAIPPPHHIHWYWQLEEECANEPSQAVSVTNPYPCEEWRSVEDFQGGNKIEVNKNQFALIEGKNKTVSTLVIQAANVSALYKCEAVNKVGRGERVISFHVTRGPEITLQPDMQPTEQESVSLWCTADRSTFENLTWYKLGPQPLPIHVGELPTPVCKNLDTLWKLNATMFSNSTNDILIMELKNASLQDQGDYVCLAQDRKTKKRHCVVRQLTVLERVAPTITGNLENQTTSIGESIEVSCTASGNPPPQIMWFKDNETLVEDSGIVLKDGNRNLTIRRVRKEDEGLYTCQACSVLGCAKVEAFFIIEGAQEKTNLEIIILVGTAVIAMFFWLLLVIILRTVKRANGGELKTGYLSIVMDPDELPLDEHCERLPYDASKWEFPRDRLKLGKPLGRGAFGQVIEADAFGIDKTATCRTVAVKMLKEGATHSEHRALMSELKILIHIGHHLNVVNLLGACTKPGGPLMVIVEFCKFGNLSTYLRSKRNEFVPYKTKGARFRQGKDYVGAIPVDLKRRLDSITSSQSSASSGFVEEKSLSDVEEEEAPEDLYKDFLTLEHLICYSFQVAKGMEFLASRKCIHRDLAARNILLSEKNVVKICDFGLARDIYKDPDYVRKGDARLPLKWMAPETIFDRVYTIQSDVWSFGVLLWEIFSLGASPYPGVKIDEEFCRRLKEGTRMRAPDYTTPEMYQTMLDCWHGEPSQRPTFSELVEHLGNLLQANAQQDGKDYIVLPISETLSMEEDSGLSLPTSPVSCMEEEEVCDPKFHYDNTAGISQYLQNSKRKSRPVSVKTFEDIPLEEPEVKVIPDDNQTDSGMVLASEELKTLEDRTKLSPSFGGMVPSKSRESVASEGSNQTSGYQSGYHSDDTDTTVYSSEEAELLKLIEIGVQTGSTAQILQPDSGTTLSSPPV

B1: 21A1 (antibody, V domains shown)
VH: QVQLVESGGGLVKPGGSLRLSCAASGFTFSDYYMSWIRQAPGKGLEWVSYISNSGITIYYADSVKGRFTISRDNAKNSLYLQMNSLRAGDTAVYYCAREEWYSSRWYRNFDYWGQGTLVTVSS
VL: DIQMTQFSSSLSASVGDRVTITCRASQSISRYLNWYQQKPGKAPKLLIYAASSLQSGVPSRFNGSGSGTDFTLTISSLQPEDFATYYCQQSYSAPLTFGGGTKVEIK
notes: Fully human mAb from XenoMouse hybridoma, tested as hybridoma supernatant
For B1, the “VEGF-E-mediated Survival % Inhibition (Average)” value in test [1] was determined as 42%. Also, in test [1], the “VEGF-E-mediated Survival % Inhibition (n = 1)” value amounted to 45%. The “VEGF-E-mediated Survival % Inhibition (n = 2)” value in test [1] stood at 40%. Besides, the ELISA reading stood at 4.45 in [2]; 4.43 in test [3]; 4.14 in [4]; 3.36 in test [5]; 1.66 in test [6]; 0.56 in test [7]. Also, the ELISA reading in test [8] was determined as 1.47; in test [9], 2.65; in test [10], 0.25; in test [11], 0.81; in [12], 0.38; in [13], 0.23.

B2: 21H6 (antibody, V domains shown)
VH: QVQLVESGGGLVKPGGSLRLSCAASGFTFSDYYMSWIRQAPGKGLEWVSYISNSGITIYYADSVKGRFTISRDNAKNSLYLQMNSLRAGDTAVYYCAREEWYSSRWYRNFDYWGQGTLVTVSS
VL: DIQMTQFSSSLSASVGDRVTITCRASQSISRYLNWYQQKPGKAPKLLIYAASSLQSGVPSRFNGSGSGTDFTLTISSLQPEDFATYYCQQSYSAPLTFGGGTKVEIK
notes: as for B1
Take B2: in test [1], the “VEGF-E-mediated Survival % Inhibition (Average)” value is 55%. In addition, the “VEGF-E-mediated Survival % Inhibition (n = 1)” value in test [1] is 56%. In test [1], the “VEGF-E-mediated Survival % Inhibition (n = 2)” value was found to be 53%. Further, the ELISA reading in test [2] came to 6; in test [3], 4.19; in test [4], 5.57; in [5], 4.02; in [6] it was 2.91; in test [7], 1.17. The ELISA reading was 0.97 in test [8]; 1.83 in test [9]; 0.54 in test [10]; 0.52 in [11]; 0.23 in [12]; 0.15 in test [13].

B3: 1G6 (antibody, V domains shown)
VH: EVQLLESGGGLVQPGGSLRLSCAASGFTFSSYAMSWVRQAPGKGLEWVSAISGGGGNTYYADSVKGRFTISRDNSKNTLYLQMNSLRAEDTAVYYCSKVATDYWGQGTLVTVSS
VL: QPVLTQSSSASASLGSSVKLTCTLSSGHSSYIIAWHQQQPGKAPRYLMKLEGSGSYNKGSGVPDRFSGSSSGADRYLTISNLQFEDEADYYCETWDSYTVVFGGGTKLTVL
notes: as for B1
Regarding B3, the “VEGF-E-mediated Survival % Inhibition (Average)” value in test [1] came out at 2%. Further, the “VEGF-E-mediated Survival % Inhibition (n = 1)” value in test [1] was -2%. Moreover, the “VEGF-E-mediated Survival % Inhibition (n = 2)” value in test [1] worked out at 6%. Besides, the ELISA reading in test [2] came out at 6; in test [3], 6; in [4], 4.49; in [5] it was 2.24; in test [6], 0.69; in test [7], 0.34. For the same molecule, the ELISA reading in test [8] was 0.65; in test [9], 1.38; in [10], 0.26; in test [11], 0.32; in test [12] it was 0.2; in test [13], 0.12.

B4: 22B8 (antibody, V domains shown)
VH: QLQLQESGPGLVKPSETLSLTCTVSGGSISSRYYYWGWVRQPPGKGLEWIGTIYYSGHTYYNPSLKTRVTISVDTSKNQFSLKLISVTAADTAVYYCATQQLVLYYFDFWGQGTLVTVSS
VL: EIVLTQSPGTLSLSPGERAALSCRASQSISSSYLAWYQQRPGQAPRLLIYGASSRATGIPDRFNGSGSGTDFTLTISRLEPEDFAVYYCQQFGSSITFGQGTRLEIK
notes: as for B1
Regarding B4, the “VEGF-E-mediated Survival % Inhibition (Average)” value in [1] stood at 55%. The “VEGF-E-mediated Survival % Inhibition (n = 1)” value in test [1] is 57%. In test [1], the “VEGF-E-mediated Survival % Inhibition (n = 2)” value came out at 53%. Also, the ELISA reading is 6 in test [2]; 6 in test [3]; 6 in [4]; 3.49 in test [5]; 1.27 in test [6]; 0.31 in test [7]. Moreover, the ELISA reading in test [8] was 1.84; in test [9] it was 3.36; in [10], 0.2; in test [11], 0.91; in [12] it was 0.42; in test [13], 0.21.

B5: 21H9 (antibody, V domains shown)
VH: QVPLVESGGGVVQPGRSLRLSCAASGFTFSSYGMHWVRQAPGKGLEWVAVIWYDGSNKYYADSVQGRFTISRDNSKNTLYLQMNSLRAEDTAVYYCARGVTMVRGLIIARYYYGLDVWGQGTTVTVSS
VL: DIVMTQTPLSSPVTFGQPASISCRSSQSLVHSDGNTYLSWLQQRPGQPPRLLIYKISNRFFGVPDRFSGSGAGTDFTLKISRVEAEDVGLYYCMQSTQFPLTFGGGTKVEIK
notes: as for B1
Regarding B5, the “VEGF-E-mediated Survival % Inhibition (Average)” value in test [1] was -1%. Besides, the “VEGF-E-mediated Survival % Inhibition (n = 1)” value in test [1] is -3%. The “VEGF-E-mediated Survival % Inhibition (n = 2)” value in test [1] turned out to be 1%. The ELISA reading in test [2] is 6; in [3], 4.34; in test [4], 3.41; in test [5] it was 1.56; in [6], 0.7; in test [7] it was 0.26. In addition, the ELISA reading in [8] came to 1.46; in [9] it was 2.28; in test [10], 0.12; in [11], 0.82; in [12] it was 0.39; in [13] it was 0.22.

B6: 30D7 (antibody, V domains shown)
VH: QVPLVESGGGVVQPGRSLRLSCAASGFTFSSYGMHWVRQAPGKGLEWVAVIWYDGSNKYYADSVKGRFTISRDNSKNTLYLQMNSLRAEDTAVYYCARGVTMVRGVIIARYYYGLDVWGQGTTVTVSS
VL: DIVMTQTPLSSPVTLGQPASISCRSSQSLVHSDGNTYLSWLQQRPGQPPRLLIYKISNRFFGVPDRFSGSGAGTDFTLKIGRVEAEDVGLYYCMQSTQFPLTFGGGTKVEIK
notes: as for B1
B6: the “VEGF-E-mediated Survival % Inhibition (Average)” value in test [1] was -24%. In addition, in test [1], the “VEGF-E-mediated Survival % Inhibition (n = 1)” value is -27%. Also, in [1], the “VEGF-E-mediated Survival % Inhibition (n = 2)” value is -22%. In addition, the ELISA reading in test [2] came to 4.66; in [3], 5.09; in [4], 6; in [5] it was 4.24; in test [6] it was 2.79; in test [7], 1.02. Further, the ELISA reading in test [8] was 1.51; in test [9], 2.93; in test [10], 0.82; in test [11], 0.79; in test [12], 0.48; in test [13], 0.27.
